# Assay results from US20240083986A1.
# Biological target: Hazel (Cor A 1, MyBiosource, Cat #MBS5304600) (Hazel) (UniProt Q08407)
# Experiment: SPR, mAb captured via anti-hFc, 25 C
row,100 nM Analyte Bound (RU),Binder
1,0,"H4H16987P (antibody, human IgG4 S228P, kappa, V domains shown) VH: EVQLVESGGGLVQPGGSLRLSCAASGFTVSSNSMSWVRQAPGEGLEWVSVIFSGGITYYSDSVKGRFTISRHNSKNTLYLQMNSLRTEDTAVYYCARHSNWNFDAFDIWGQGTMVTVSS VL: DIQMTQSPSSLSASVGDRVTITCRASQSFDTYLNWYQQKPGKAPNLLIYATSSLQSGVPSRFSGSGSGTDFTLTISSLQPEDFGTYYCQQSYSIPYTFGQGTKLEIKR"
2,0,"H4H16960P (antibody, human IgG4, V domains shown) VH: QLQLQESGPGLVRPSETLSLTCTVSGGSISSSNYWWGWIRQPPGKGLEWIGSIYYSGITYYNPSLKSRVTISADTSKDQFSLKLRSVTAADTAVYYCAKLEWLRLDFWGQGTTVTVSS VL: DIQMTQSPSSVSASVGDRVTITCRASQGISSWLVWYQQKPGKVPKLLIYAASSLQSGVPLRFSGSGSGTDFTLTISSLQPEDFATYYCQQAKSFPLTFGQGTRLEIK"
3,0,"H4H17028P (antibody, human IgG4, V domains shown) VH: QVQLVESGGGVVQPGRSLRLSCAASGFTFSRYAIHWVRQAPGKGLEWVAVISYDGDDKYYGDSVKGRFTISRDNSKTMVYLHMNSLRTEDTAVYYCAKDGYSLYGKDYFDYWGQGTLVTVSS VL: EIVLTQSPGTLPLSPGERATLSCRASQSITNSYLAWYQQKPDQAPRLLIYGASSRATGIPDRFSGSESGTDFTLTISRLEPEDFAVYYCQQYVRSPWTFGQGTKVEIK"
4,0,"H4H17033P (antibody, human IgG4, V domains shown) VH: QVQLVQSGAEVKKPGASVKVSCKASGYTFAAHYMHWVRQAPGQGLEWMGWINTYTGGTNYGQKFQGRVTMTRDTSITTAYMELSRLRSDDTAVYYCARDRRNWNFVFEYWGQGTLVTVSS VL: DIQMTQSPSSLSASVGDRVTISCRASQNIKNYLNWYQQKPGKAPKLLIYEASNLQSGAPSRFSGSGSGTDFTLTISSLEPEDFATYYCQQSFSIPWTFGQGTKVEIK"
5,0,"H4H17031P (antibody, human IgG4, V domains shown) VH: QVQLQQWGAGLLKPSETLSLTCVVYGESFGNYHWNWIRQSPGKRLEWIGEINQNGHTNYNPSLKSRVTISVDTSKIQFSLRLNSVTAADTAVYFCARGHNYVNSYFGLDVWGQGTTVTVSS VL: EIVMTQSPATLSVSPGERATLSCRTSQSVSISLAWYQRKPGQAPRLLIFGSSTRATGVPARFSGSGSGTEFTLTISSLQSEDFAVYYCQQYNNWPYTFGQGTKLEIK"
6,-1,"H4H16946P (antibody, human IgG4, V domains shown) VH: EVQLVESGGGLVQPGGSLRLSCVASGFTFSNYDMNWVRQAPGEGLEWISYISYSDHNIYYIDSVKGRFTISRDNAKNSLYLQMNSLRAEDTAIYYCAREALASSSFDYWGQGTLVTVSS VL: EIVMTQSPATLSVSPGERVTLSCRASQSVSGNLAWYQQKPGQAPRLLIYSASTGATGVPARFSGSGSGTEFTLTISSLQSEDFALYYCQQYNKWPRTIGQGTKVEIK"
7,0,"H4H16991P (antibody, human IgG4, V domains shown) VH: QVQLVQSGAEVRKPGASVKVSCKASGYTFTGYYLHWVRQAPGQGLEWMGLINPNTGGTNFAQKFQGRVTMTRDSSISAAYMELSRLRSDDTAVYYCARQHWNRYFDNWGQGTLVTVSS VL: DIQMTQSPSTLSASVGDRVTITCRASQSVGNWLAWYQQKPGKAPKLLIQEASSIESGVPSRFSGSGSGTEFTLIVSSLQPDDFATYYCQQYNSYSWTFGHGTKVEIK"
8,0,"H4H16950P (antibody, human IgG4, V domains shown) VH: QVQLVQSGAEVKKPGASVKVSCKTSGYTFTNYGITWVRQAPGQGLEWMGWISAYNGNTNYAQNVQGRVTMTTDTSTSTAYMEVRSLRSDDTAVYYCARRSSMLHFQHWGQGTLVTVSS VL: DIVMTQSPDSLAVSLGERATINCKSSQHVLYDSSNENYLAWFQQKPGQPPKLLIYWASTRESGVPDRFSGSGSGTDFTLTISSLQAEDVAVYYCQQYSSAPYTFGQGTKLEIK"
9,1,"H4H17015P (antibody, human IgG4, V domains shown) VH: QVQLQESGPGLVKPSQTLSLTCTVSGGSISSADHYWSWIRQQPGKGLEWIGYISYRGTTYYNPTLESRVSISVDTFKNQFSLMLHSVTVADTAVYYCAKVLQGLVRFRDYGFDVWGQGTTVTVSS VL: DIQLTQSPPFLSASVGDRVTITCWASQDISSYLAWYQQNPGKSPKLLIYDAFTLHTGVPSRFSGSGSGTEFTLTISSLQPEDFATFYCQHLYSFPFTFGPGTKVDIK"
10,0,"H4H17001P (antibody, human IgG4, V domains shown) VH: QVQLVESGGGLVKPGGSLRLSCAASGFTFSDYYMNWIRQAPGKGLEWISLISSSGSAIYYSDSVKGRFTISRDNARKSLYLQVNSLRAEDTAVYYCARDRGEWALGAYYYGLDVWGQGTTVTVSS VL: DIVMTQSPLSLPVTPGEPASISCRSSQSLLHSDGYNYLDWYLQKSGQSPQLLIYLGSNRASGVPDRFSGSGSGTDFTLKISRMEAEDVGVYYCMQALQTPYTFGQGTKLEIK"
11,0,"H4H17027P (antibody, human IgG4, V domains shown) VH: EVQLVESGGGLVQPGGSLRLSCAASGFTFRNYAMHWVRQAPGEGLEWVAAIYRNSDSIDYADSVKGRFTISRDNAKNSLYLQMNSLKTEDTALYYCAKDEGFLEYFDSWGQGTLVTVSS VL: EIVLTQSPGTLSLSPGERASLSCRASQSVSSSFLAWYQQKPGQAPRLLIYGVSSRFIGIPDRFSGGGSGTDFTLTITRLEPEDFAVYYCQQYGRSPWTFGQGTKVEIK"
